From article PMC12209146
Values joined by “and” are separate entries in the source; they are usually repeats but may differ in a detail not shown here. Identical values can stand only once.

Molecular target: toxin B (TcdB) from Clostridioides difficile VPI 10,463 (Clostridioides difficile VPI 10,463) (UniProt P18177)
Sequence (P18177 whole entry): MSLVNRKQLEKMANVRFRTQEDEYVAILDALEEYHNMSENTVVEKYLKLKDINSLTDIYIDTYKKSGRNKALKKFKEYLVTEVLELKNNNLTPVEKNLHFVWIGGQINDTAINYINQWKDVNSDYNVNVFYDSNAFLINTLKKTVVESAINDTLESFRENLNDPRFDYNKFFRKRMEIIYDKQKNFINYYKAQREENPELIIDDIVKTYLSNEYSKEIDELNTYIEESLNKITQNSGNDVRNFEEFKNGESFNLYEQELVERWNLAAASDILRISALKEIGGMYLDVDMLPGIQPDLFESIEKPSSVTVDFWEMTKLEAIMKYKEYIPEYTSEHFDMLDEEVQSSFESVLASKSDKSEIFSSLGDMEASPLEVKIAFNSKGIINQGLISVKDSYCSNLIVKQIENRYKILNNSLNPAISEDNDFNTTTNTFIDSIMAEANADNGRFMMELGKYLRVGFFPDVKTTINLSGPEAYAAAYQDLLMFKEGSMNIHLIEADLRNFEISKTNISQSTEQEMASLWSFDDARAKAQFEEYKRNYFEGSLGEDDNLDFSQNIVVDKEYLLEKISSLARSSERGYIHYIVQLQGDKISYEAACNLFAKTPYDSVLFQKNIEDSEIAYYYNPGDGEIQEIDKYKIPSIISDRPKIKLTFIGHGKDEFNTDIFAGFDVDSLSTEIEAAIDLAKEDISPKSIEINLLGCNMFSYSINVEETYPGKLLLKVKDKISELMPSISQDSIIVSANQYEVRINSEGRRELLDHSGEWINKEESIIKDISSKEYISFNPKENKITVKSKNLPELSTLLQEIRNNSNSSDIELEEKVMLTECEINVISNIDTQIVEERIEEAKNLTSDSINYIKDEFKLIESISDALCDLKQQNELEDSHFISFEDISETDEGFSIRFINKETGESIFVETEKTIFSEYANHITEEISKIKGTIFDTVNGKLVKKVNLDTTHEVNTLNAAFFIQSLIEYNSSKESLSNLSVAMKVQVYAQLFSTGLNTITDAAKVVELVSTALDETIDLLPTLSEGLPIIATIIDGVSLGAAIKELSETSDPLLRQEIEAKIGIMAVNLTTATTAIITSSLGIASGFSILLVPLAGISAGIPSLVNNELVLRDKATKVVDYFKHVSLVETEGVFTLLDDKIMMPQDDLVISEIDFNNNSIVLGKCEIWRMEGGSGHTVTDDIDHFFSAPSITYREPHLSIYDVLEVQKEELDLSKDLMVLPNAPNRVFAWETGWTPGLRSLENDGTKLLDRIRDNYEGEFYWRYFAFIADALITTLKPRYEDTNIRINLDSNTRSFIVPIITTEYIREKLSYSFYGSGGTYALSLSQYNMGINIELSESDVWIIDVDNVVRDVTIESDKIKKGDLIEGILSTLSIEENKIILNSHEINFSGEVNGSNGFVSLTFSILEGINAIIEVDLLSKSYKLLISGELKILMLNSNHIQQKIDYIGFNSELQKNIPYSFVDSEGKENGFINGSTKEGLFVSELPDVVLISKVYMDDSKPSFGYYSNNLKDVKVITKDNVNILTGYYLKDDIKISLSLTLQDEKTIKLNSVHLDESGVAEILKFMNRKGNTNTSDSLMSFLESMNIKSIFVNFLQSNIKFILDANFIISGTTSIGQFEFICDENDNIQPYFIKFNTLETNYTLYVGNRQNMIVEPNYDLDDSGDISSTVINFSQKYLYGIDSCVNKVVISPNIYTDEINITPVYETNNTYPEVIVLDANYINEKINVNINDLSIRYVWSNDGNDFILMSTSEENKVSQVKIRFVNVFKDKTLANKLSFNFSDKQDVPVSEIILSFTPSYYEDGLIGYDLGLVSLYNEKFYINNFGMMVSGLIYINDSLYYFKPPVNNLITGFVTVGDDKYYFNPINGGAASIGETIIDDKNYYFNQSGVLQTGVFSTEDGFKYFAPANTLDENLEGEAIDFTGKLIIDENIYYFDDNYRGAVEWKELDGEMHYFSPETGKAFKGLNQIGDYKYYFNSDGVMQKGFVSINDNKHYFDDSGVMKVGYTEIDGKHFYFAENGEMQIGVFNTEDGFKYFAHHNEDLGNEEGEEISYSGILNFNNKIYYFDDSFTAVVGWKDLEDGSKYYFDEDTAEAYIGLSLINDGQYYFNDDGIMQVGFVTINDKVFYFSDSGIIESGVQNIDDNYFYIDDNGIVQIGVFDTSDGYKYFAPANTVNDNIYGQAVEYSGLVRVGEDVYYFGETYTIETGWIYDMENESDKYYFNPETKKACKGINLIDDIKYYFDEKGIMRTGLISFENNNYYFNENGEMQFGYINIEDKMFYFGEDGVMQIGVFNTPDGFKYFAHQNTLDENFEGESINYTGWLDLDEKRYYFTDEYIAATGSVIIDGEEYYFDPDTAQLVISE

KFINIFIHGNKRSIKAI [Angie 5]
other: 40.9 µM and 46.3 µM
